Three molecules from doi:10.1101/2025.09.05.674523 (bioRxiv, 2025) can be followed below.

Assay in all cases: AlphaScreen or HTRF
Test [1] deals with full-length recombinant mouse EPPIN (mEPPIN; L24-T134) (mouse) (UniProt Q9DA01).
For test [2], the target named is mEPPIN^L24-K68 (mouse) (UniProt Q9DA01).
Test [3] deals with full-length recombinant mouse SEMG1 (mSEMG1; Q32-G375) (mouse).
In test [4] the target is T1, full-length recombinant mouse EPPIN (mEPPIN; L24-T134) (mouse, UniProt Q9DA01 24-134).
T1 sequence (looked up): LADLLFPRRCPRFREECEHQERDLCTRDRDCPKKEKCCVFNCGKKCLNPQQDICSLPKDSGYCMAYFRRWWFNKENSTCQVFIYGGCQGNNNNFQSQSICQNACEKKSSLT

For “full-length recombinant mouse SEMG1 (mSEMG1; Q32-G375) (natural protein)”, the EC50 in test [1] is 23.6 nM. Moreover, the reduction in the specific signal compared to full-length EPPIN in test [2] was found to be 75%.

B1: full-length recombinant mouse EPPIN (mEPPIN; L24-T134) (natural protein)
chain: T1 sequence (looked up)
Consider B1, for which the EC50 in test [3] worked out at 1 nM.

B2: recombinant human SEMG1 (hSEMG1, G26-R281) (domain or fragment, UniProt P04279 26-281, looked up)
chain: GGSKGRLPSEFSQFPHGQKGQHYSGQKGKQQTESKGSFSIQYTYHVDANDHDQSRKSQQYDLNALHKTTKSQRHLGGSQQLLHNKQEGRDHDKSKGHFHRVVIHHKGGKAHRGTQNPSQDQGNSPSGKGISSQYSNTEERLWVHGLSKEQTSVSGAQKGRKQGGSQSSYVLQTEELVANKQQRETKNSHQNKGHYQNVVEVREEHSSKVQTSLCPAHQDKLQHGSKDIFSTQDELLVYNKNQHQTKNLNQDQQHGR
For the molecule B2, the 50% effective concentration (EC50) in test [4] came out at 8.3 nM.

What is called EC50 is the concentration giving half of the maximal effect.
